Source: patent publication US20130157934A1 (INDIANA UNIVERSITY RESEARCH AND TECHNOLOGY, published 2013)
Like-named read-outs stand apart in the source and are kept apart here. Starred links: 1 amine or outer side, 2 acyl side, 3 side chain; linkers in the order of their positions; H or OH if unused. Positions of bridges follow the written chain, without caps; N, C: chain ends. Non-standard residues stand in square brackets, D forms with d. Groups on a side chain read outwards from the residue. No end group written: not given here. estradiol (3-ether, amide-linked) = estradiol attached through its 3-position ether, via an amide; PhLac = O=C(O)[C@@H](O)Cc1ccccc1; Suc = O=C(CCC(=O)[*:2])[*:1]; Aib = CC(C)(N)C(=O)O

What was measured:
Assay in all cases: cell-based or functional assay
GLP-1 receptor [1] = target: T1, GLP-1 receptor (UniProt P43220 24-463, limits assumed)
Target sequence in this assay (P43220 24-463 limits assumed): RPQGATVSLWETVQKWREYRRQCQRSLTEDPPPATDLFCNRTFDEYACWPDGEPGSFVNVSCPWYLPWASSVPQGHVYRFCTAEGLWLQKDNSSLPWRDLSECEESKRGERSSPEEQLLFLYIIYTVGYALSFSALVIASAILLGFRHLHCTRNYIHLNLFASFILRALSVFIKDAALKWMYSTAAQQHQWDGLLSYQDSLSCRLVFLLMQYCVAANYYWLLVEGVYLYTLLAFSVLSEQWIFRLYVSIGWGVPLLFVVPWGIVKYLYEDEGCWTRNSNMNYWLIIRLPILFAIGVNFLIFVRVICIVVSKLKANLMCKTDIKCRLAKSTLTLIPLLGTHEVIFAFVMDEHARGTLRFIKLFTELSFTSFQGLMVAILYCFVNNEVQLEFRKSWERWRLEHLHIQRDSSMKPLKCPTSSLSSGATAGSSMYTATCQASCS

glucagon receptor [2] = target: T2, glucagon receptor (UniProt P47871 26-477, limits assumed)
GLP-1 receptor [3] = target: T1, GLP-1 receptor; remark: listed apart in the source
Target sequence in this assay (P43220 24-463 limits assumed): as above

glucagon receptor [4] = target: T2, glucagon receptor; remark: listed apart in the source
glucagon receptor [5] = target: glucagon receptor (UniProt P47871)
GLP-1 receptor [6] = target: GLP-1 receptor (UniProt P43220)
glucagon receptor [7] = target: glucagon receptor (UniProt P47871); remark: listed apart in the source
glucagon receptor [8] = target: T2, glucagon receptor; remark: listed apart in the source
glucagon receptor [9] = target: T2, glucagon receptor; remark: listed apart in the source
GLP-1 receptor [10] = target: T1, GLP-1 receptor; remark: listed apart in the source
GLP-1 receptor [11] = target: T1, GLP-1 receptor; remark: listed apart in the source
GLP-1 receptor [12] = target: T1, GLP-1 receptor; remark: listed apart in the source
glucagon receptor [13] = target: T2, glucagon receptor; remark: listed apart in the source
GLP-1 receptor [14] = target: T1, GLP-1 receptor; remark: listed apart in the source
Target sequence in this assay (P43220 24-463 limits assumed): as above

T2 sequence (P47871 26-477 limits assumed): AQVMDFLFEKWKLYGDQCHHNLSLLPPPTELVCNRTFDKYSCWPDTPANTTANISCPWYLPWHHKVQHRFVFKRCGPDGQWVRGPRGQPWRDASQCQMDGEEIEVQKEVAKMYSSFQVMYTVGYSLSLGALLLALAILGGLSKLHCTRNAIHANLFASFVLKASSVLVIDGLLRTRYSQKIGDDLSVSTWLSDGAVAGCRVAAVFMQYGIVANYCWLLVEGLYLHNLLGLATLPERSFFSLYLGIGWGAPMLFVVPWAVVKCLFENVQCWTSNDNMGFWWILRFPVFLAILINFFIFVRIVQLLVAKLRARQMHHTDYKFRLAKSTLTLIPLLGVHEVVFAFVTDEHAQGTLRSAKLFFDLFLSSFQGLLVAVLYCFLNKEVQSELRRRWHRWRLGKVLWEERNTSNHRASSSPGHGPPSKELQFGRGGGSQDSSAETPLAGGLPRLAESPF
Sequence of glucagon receptor (UniProt P47871) (P47871 26-477 limits assumed): as above
Sequence of GLP-1 receptor (UniProt P43220) (P43220 24-463 limits assumed): as the sequence (P43220 24-463 limits assumed) above

B1: Inactive GLP-1 (d-amino acid containing)/Estrogen(3-ester) (peptide)
peptide: [dA][Aib][dE]G[dT][dF][dT][dS][dD][dV][dS][dS][dY][dL][dE]G[dQ][dA][dA][dK][dE][dA][dI][dA][dW][dL][dV][dK]GG[dP][dS][dS]G[dA][dP][dP][dP][dS]K([Suc-estradiol])-NH2
B1 was tested, and the “GLP-1 EC50 (cAMP induction, CRE-luciferase in HEK293 cells)” value (GLP-1 receptor [1]) was 562 nM.

B2: [PLA6, D9, E16, E24K28(lactam)]G(6~29) (peptide)
peptide: [PhLac]TSDYSKYLDERRAQDFVEWLMKT-NH2
modifications: lactam 19-23; N-terminus assumed
SMILES: CSCC[C@@H]1NC(=O)[C@H](CC(C)C)NC(=O)[C@H](Cc2c[nH]c3ccccc23)NC(=O)[C@@H](NC(=O)[C@@H](NC(=O)[C@H](Cc2ccccc2)NC(=O)[C@H](CC(=O)O)NC(=O)[C@H](CCC(N)=O)NC(=O)[C@H](C)NC(=O)[C@H](CCCNC(=N)N)NC(=O)[C@H](CCCNC(=N)N)NC(=O)[C@H](CCC(=O)O)NC(=O)[C@H](CC(=O)O)NC(=O)[C@H](CC(C)C)NC(=O)[C@H](Cc2ccc(O)cc2)NC(=O)[C@H](CCCCN)NC(=O)[C@H](CO)NC(=O)[C@H](Cc2ccc(O)cc2)NC(=O)[C@H](CC(=O)O)NC(=O)[C@H](CO)NC(=O)[C@@H](NC(=O)[C@@H](O)Cc2ccccc2)[C@@H](C)O)C(C)C)CCC(=O)NCCCC[C@@H](C(=O)N[C@H](C(N)=O)[C@@H](C)O)NC1=O
In the case of B2, the Glucagon IC50 (glucagon receptor [2]) is reported as 22 nM and the GLP-1 EC50 (GLP-1 receptor [3]) is reported as 289 nM.

B3: [PLA6, D9, E16, K20E24(Lactam), D28]G(6-29) (peptide)
peptide: [PhLac]TSDYSKYLDERRAKDFVEWLMDT-NH2
modifications: lactam 15-19; N-terminus assumed
SMILES: CSCC[C@H](NC(=O)[C@H](CC(C)C)NC(=O)[C@H](Cc1c[nH]c2ccccc12)NC(=O)[C@@H]1CCC(=O)NCCCC[C@H](NC(=O)[C@H](C)NC(=O)[C@H](CCCNC(=N)N)NC(=O)[C@H](CCCNC(=N)N)NC(=O)[C@H](CCC(=O)O)NC(=O)[C@H](CC(=O)O)NC(=O)[C@H](CC(C)C)NC(=O)[C@H](Cc2ccc(O)cc2)NC(=O)[C@H](CCCCN)NC(=O)[C@H](CO)NC(=O)[C@H](Cc2ccc(O)cc2)NC(=O)[C@H](CC(=O)O)NC(=O)[C@H](CO)NC(=O)[C@@H](NC(=O)[C@@H](O)Cc2ccccc2)[C@@H](C)O)C(=O)N[C@@H](CC(=O)O)C(=O)N[C@@H](Cc2ccccc2)C(=O)N[C@@H](C(C)C)C(=O)N1)C(=O)N[C@@H](CC(=O)O)C(=O)N[C@H](C(N)=O)[C@@H](C)O
Work on B3 yielded a Glucagon IC50 (glucagon receptor [2]) of 74 nM and a GLP-1 EC50 (GLP-1 receptor [3]) of 239 nM.

B4: [A2E3, E16K20(Lactam), D28]G(2~29) (peptide)
peptide: AEGTFTSEYSKYLDERRAKDFVQWLMDT-NH2
modifications: lactam 15-19
With B4 the “Glucagon IC50” value (glucagon receptor [4]) was 63 nM.

B5: [PLA6, E9, K12E16(Lactam)] glucagon(6-39) Cex peptide (peptide)
peptide: XTSEYSKYLDERRAQDFVQWLMNTGPSSGAPPPS
modifications: not fully specified; X1 = PLA (phenyl lactic acid in place of Phe 6 of glucagon); lactam bridge K12-E16 (glucagon numbering; residues 7 and 11 of this chain)
Work on B5 yielded a Glu IC50 (glucagon receptor [5]) of 72 nM, a GLP-1 EC50 (GLP-1 receptor [6]) of 6 nM and a Glucagon IC50 (glucagon receptor [7]) of 72 nM.

B6: E9, K12, E16 glucagon(6-39) Cex peptide (peptide)
peptide: FTSEYSKYLDERRAQDFVQWLMNTGPSSGAPPPS-NH2
In the case of B6, the “Glucagon IC50” value (glucagon receptor [8]) is reported as 762 nM and the “Glu IC50” value (glucagon receptor [9]) is reported as 762 nM.

B7: ANK2 (Bayer peptide) (peptide)
peptide: HSQGTFTSDYARYLDARRAREFIKWLVRGRG
With B7 the “GLP-1 EC50” value (GLP-1 receptor [10]) was 0.28 nM.

B8: E9, K12E16(lactam) glucagon(6-39) Cex peptide (peptide)
peptide: FTSEYSKYLDERRAQDFVQWLMNTGPSSGAPPPS-NH2
modifications: lactam 7-11; N-terminus assumed
SMILES: CSCC[C@H](NC(=O)[C@H](CC(C)C)NC(=O)[C@H](Cc1c[nH]c2ccccc12)NC(=O)[C@H](CCC(N)=O)NC(=O)[C@@H](NC(=O)[C@H](Cc1ccccc1)NC(=O)[C@H](CC(=O)O)NC(=O)[C@H](CCC(N)=O)NC(=O)[C@H](C)NC(=O)[C@H](CCCNC(=N)N)NC(=O)[C@H](CCCNC(=N)N)NC(=O)[C@@H]1CCC(=O)NCCCC[C@H](NC(=O)[C@H](CO)NC(=O)[C@H](Cc2ccc(O)cc2)NC(=O)[C@H](CCC(=O)O)NC(=O)[C@H](CO)NC(=O)[C@@H](NC(=O)[C@@H](N)Cc2ccccc2)[C@@H](C)O)C(=O)N[C@@H](Cc2ccc(O)cc2)C(=O)N[C@@H](CC(C)C)C(=O)N[C@@H](CC(=O)O)C(=O)N1)C(C)C)C(=O)N[C@@H](CC(N)=O)C(=O)N[C@H](C(=O)NCC(=O)N1CCC[C@H]1C(=O)N[C@@H](CO)C(=O)N[C@@H](CO)C(=O)NCC(=O)N[C@@H](C)C(=O)N1CCC[C@H]1C(=O)N1CCC[C@H]1C(=O)N1CCC[C@H]1C(=O)N[C@@H](CO)C(N)=O)[C@@H](C)O
In the case of B8, the “Glucagon IC50” value (glucagon receptor [8]) is reported as 2010 nM, the “GLP-1 EC50” value (GLP-1 receptor [11]) is reported as 63 nM and the “Glu IC50” value (glucagon receptor [9]) is reported as 2010 nM. For the same binder, the “GLP-1 EC50” value (GLP-1 receptor [12]) was 63 nM.

B9: [PLA6, D9, E16K20(lactam), D28]G(6-29) (peptide)
peptide: [PhLac]TSDYSKYLDERRAKDFVQWLMDT-NH2
modifications: lactam 11-15
B9 was tested, and the “Glucagon IC50” value (glucagon receptor [8]) was 6 nM, the “GLP-1 EC50” value (GLP-1 receptor [11]) was 4 nM and the “Glucagon IC50” value (glucagon receptor [4]) was 10 to 30 nM.

B10: E9, E16K20(lactam) glucagon(6-39) Cex peptide (peptide)
peptide: FTSEYSKYLDERRAKDFVQWLMNTGPSSGAPPPS-NH2
modifications: lactam 11-15; N-terminus assumed
SMILES: CSCC[C@H](NC(=O)[C@H](CC(C)C)NC(=O)[C@H](Cc1c[nH]c2ccccc12)NC(=O)[C@H](CCC(N)=O)NC(=O)[C@@H](NC(=O)[C@H](Cc1ccccc1)NC(=O)[C@H](CC(=O)O)NC(=O)[C@@H]1CCCCNC(=O)CC[C@H](NC(=O)[C@H](CC(=O)O)NC(=O)[C@H](CC(C)C)NC(=O)[C@H](Cc2ccc(O)cc2)NC(=O)[C@H](CCCCN)NC(=O)[C@H](CO)NC(=O)[C@H](Cc2ccc(O)cc2)NC(=O)[C@H](CCC(=O)O)NC(=O)[C@H](CO)NC(=O)[C@@H](NC(=O)[C@@H](N)Cc2ccccc2)[C@@H](C)O)C(=O)N[C@@H](CCCNC(=N)N)C(=O)N[C@@H](CCCNC(=N)N)C(=O)N[C@@H](C)C(=O)N1)C(C)C)C(=O)N[C@@H](CC(N)=O)C(=O)N[C@H](C(=O)NCC(=O)N1CCC[C@H]1C(=O)N[C@@H](CO)C(=O)N[C@@H](CO)C(=O)NCC(=O)N[C@@H](C)C(=O)N1CCC[C@H]1C(=O)N1CCC[C@H]1C(=O)N1CCC[C@H]1C(=O)N[C@@H](CO)C(N)=O)[C@@H](C)O
For B10, the “Glucagon IC50” value (glucagon receptor [8]) was 42 nM, the “GLP-1 EC50” value (GLP-1 receptor [11]) was 36 nM and the “Glu IC50” value (glucagon receptor [9]) was 42 nM. For the same binder, the “GLP-1 EC50” value (GLP-1 receptor [12]) was 36 nM.

B11: D9, K12E16(Lactam) glucagon(6-39) Cex peptide (peptide)
peptide: FTSDYSKYLDERRAQDFVQWLMNTGPSSGAPPPS-NH2
modifications: lactam 7-11; not fully specified
With B11 the “Glucagon IC50” value (glucagon receptor [8]) was 828 nM, the “GLP-1 EC50” value (GLP-1 receptor [11]) was 18 nM and the “Glu IC50” value (glucagon receptor [9]) was 828 nM. For the same binder, the “GLP-1 EC50” value (GLP-1 receptor [12]) was 119 nM.

B12: [PLA6, D9, K12E16(Lactam), D28]G(6-29) (peptide)
peptide: [PhLac]TSDYSKYLDERRAQDFVQWLMDT-NH2
modifications: lactam 7-11; not fully specified
With B12 the Glucagon IC50 (glucagon receptor [2]) was 63 nM, the GLP-1 EC50 (GLP-1 receptor [3]) was 177 nM and the Glucagon IC50 (glucagon receptor [13]) was 13 nM. It also gave a GLP-1 EC50 (GLP-1 receptor [14]) of 21 nM.

B13: [E9, E16K20(lactam), D28]G(4~29) (peptide)
peptide: GTFTSEYSKYLDERRAKDFVQWLMDT-NH2
modifications: lactam 13-17; N-terminus assumed
SMILES: CSCC[C@H](NC(=O)[C@H](CC(C)C)NC(=O)[C@H](Cc1c[nH]c2ccccc12)NC(=O)[C@H](CCC(N)=O)NC(=O)[C@@H](NC(=O)[C@H](Cc1ccccc1)NC(=O)[C@H](CC(=O)O)NC(=O)[C@@H]1CCCCNC(=O)CC[C@H](NC(=O)[C@H](CC(=O)O)NC(=O)[C@H](CC(C)C)NC(=O)[C@H](Cc2ccc(O)cc2)NC(=O)[C@H](CCCCN)NC(=O)[C@H](CO)NC(=O)[C@H](Cc2ccc(O)cc2)NC(=O)[C@H](CCC(=O)O)NC(=O)[C@H](CO)NC(=O)[C@@H](NC(=O)[C@H](Cc2ccccc2)NC(=O)[C@@H](NC(=O)CN)[C@@H](C)O)[C@@H](C)O)C(=O)N[C@@H](CCCNC(=N)N)C(=O)N[C@@H](CCCNC(=N)N)C(=O)N[C@@H](C)C(=O)N1)C(C)C)C(=O)N[C@@H](CC(=O)O)C(=O)N[C@H](C(N)=O)[C@@H](C)O
B13 was tested, and the “Glucagon IC50” value (glucagon receptor [4]) was 10 to 30 nM and the “GLP-1 EC50” value (GLP-1 receptor [10]) was 151 nM.

B14: [A2E3, E16K20(Lactam), D28]G(1~29) (peptide)
peptide: HAEGTFTSEYSKYLDERRAKDFVQWLMDT-NH2
modifications: lactam 16-20; N-terminus assumed
SMILES: CSCC[C@H](NC(=O)[C@H](CC(C)C)NC(=O)[C@H](Cc1c[nH]c2ccccc12)NC(=O)[C@H](CCC(N)=O)NC(=O)[C@@H](NC(=O)[C@H](Cc1ccccc1)NC(=O)[C@H](CC(=O)O)NC(=O)[C@@H]1CCCCNC(=O)CC[C@H](NC(=O)[C@H](CC(=O)O)NC(=O)[C@H](CC(C)C)NC(=O)[C@H](Cc2ccc(O)cc2)NC(=O)[C@H](CCCCN)NC(=O)[C@H](CO)NC(=O)[C@H](Cc2ccc(O)cc2)NC(=O)[C@H](CCC(=O)O)NC(=O)[C@H](CO)NC(=O)[C@@H](NC(=O)[C@H](Cc2ccccc2)NC(=O)[C@@H](NC(=O)CNC(=O)[C@H](CCC(=O)O)NC(=O)[C@H](C)NC(=O)[C@@H](N)Cc2c[nH]cn2)[C@@H](C)O)[C@@H](C)O)C(=O)N[C@@H](CCCNC(=N)N)C(=O)N[C@@H](CCCNC(=N)N)C(=O)N[C@@H](C)C(=O)N1)C(C)C)C(=O)N[C@@H](CC(=O)O)C(=O)N[C@H](C(N)=O)[C@@H](C)O
B14 was tested, and the “Glucagon IC50” value (glucagon receptor [4]) was 130 nM and the “GLP-1 EC50” value (GLP-1 receptor [10]) was 0.2 nM.

B15: Inactive GLP-1 (d-amino acid containing)/Estrogen(3-ether) (peptide)
peptide: [dA][Aib][dE]G[dT][dF][dT][dS][dD][dV][dS][dS][dY][dL][dE]G[dQ][dA][dA][dK][dE][dA][dI][dA][dW][dL][dV][dK]GG[dP][dS][dS]G[dA][dP][dP][dP][dS]K(estradiol (3-ether, amide-linked))-NH2
In the case of B15, the “GLP-1 EC50 (cAMP induction, CRE-luciferase in HEK293 cells)” value (GLP-1 receptor [1]) is reported as 418 nM.
